In the Human Domainome abundance scans (Beltran et al. 2025):
± gives the uncertainty stated by the source.

B1: Transcription elongation factor A N-terminal and central domain-containing protein, residues 30 to 77; numbered along this chain, Q8N8B7 (parent)
chain: LTELETIYVTKEHLQETDVVRAVYRVLKNCPSVALKKKAKCLLSKWKA

Variants of: B1
Assay: abundance fitness (aPCA) (normalised: wild type 0, dead -1); higher = more abundant; growth selection in yeast, the domain comes from the species named
Settings: Homo sapiens

LTELETIYVTKEHLQCTDVVRAVYRVLKNCPSVALKKKAKCLLSKWKA and LTELETIYVTKEHLQNTDVVRAVYRVLKNCPSVALKKKAKCLLSKWKA are within error of each other in abundance fitness: -0.03 ± 0.13 for the first, -0.187 ± 0.15 for the second.

Compared with LTELETIYVTKEHLQRTDVVRAVYRVLKNCPSVALKKKAKCLLSKWKA, LTELETIYVTKEHLQKTDVVRAVYRVLKNCPSVALKKKAKCLLSKWKA is lower in abundance fitness: 0.123 ± 0.071 for the first, -0.152 ± 0.18 for the second.

LTELETIYVTKEHLQPTDVVRAVYRVLKNCPSVALKKKAKCLLSKWKA and LTELETIYVTKTHLQETDVVRAVYRVLKNCPSVALKKKAKCLLSKWKA are within error of each other in abundance fitness: 0.009 ± 0.21 for the first, -0.068 ± 0.1 for the second.

First: LTELETIYVTKGHLQETDVVRAVYRVLKNCPSVALKKKAKCLLSKWKA
Second: LTELETIYVTKDHLQETDVVRAVYRVLKNCPSVALKKKAKCLLSKWKA
The abundance fitness of the first is lower: -0.598 ± 0.086 for the first, -0.184 ± 0.19 for the second.

LTELETIYVTKEHLQETDVVRAVYRVLKNCPSVALKKKAKCLLSMWKA and LTELETIYVTKEHLQETDVVRAVYRVLKNCPSVALKKKAKCLLSPWKA are within error of each other in abundance fitness: -0.63 ± 0.18 for the first, -0.667 ± 0.42 for the second.

LTEAETIYVTKEHLQETDVVRAVYRVLKNCPSVALKKKAKCLLSKWKA and LTEQETIYVTKEHLQETDVVRAVYRVLKNCPSVALKKKAKCLLSKWKA are within error of each other in abundance fitness: 0.17 ± 0.083 for the first, 0.142 ± 0.11 for the second.

Compared with LTEIETIYVTKEHLQETDVVRAVYRVLKNCPSVALKKKAKCLLSKWKA, LTEPETIYVTKEHLQETDVVRAVYRVLKNCPSVALKKKAKCLLSKWKA is higher in abundance fitness: -0.174 ± 0.14 for the first, 0.279 ± 0.11 for the second.

LTGLETIYVTKEHLQETDVVRAVYRVLKNCPSVALKKKAKCLLSKWKA and LTPLETIYVTKEHLQETDVVRAVYRVLKNCPSVALKKKAKCLLSKWKA are within error of each other in abundance fitness: -0.416 ± 0.074 for the first, -0.45 ± 0.12 for the second.

Compared with LTELETIYVTKEHLQETDVVRAVYRVLKNCPSVALKGKAKCLLSKWKA, LTELETIYVTKEHLQETDVVRAVYRVLKNCPSVALKIKAKCLLSKWKA is higher in abundance fitness: -0.578 ± 0.081 for the first, -0.337 ± 0.15 for the second.

Going from LTELETIYVTKEHLQETDVVRAVYRVLKNCPSVALKEKAKCLLSKWKA to LTELETIYVTKEHLQETDVVRAVYRVLKNCPSVALKRKAKCLLSKWKA, the abundance fitness rises from -0.248 ± 0.1 to 0.023 ± 0.065.

LTELETIYVTKEHLQETDVVRAVYRVLKNCPSVALKAKAKCLLSKWKA and LTELETIYVTKEHLQETDVVRAVYRVLKNCPSVALKKKAKCLLFKWKA are within error of each other in abundance fitness: -0.365 ± 0.086 for the first, -0.158 ± 0.13 for the second.

LTELETIYVTKEHLQEFDVVRAVYRVLKNCPSVALKKKAKCLLSKWKA and LTELETIYVTKEHLQEVDVVRAVYRVLKNCPSVALKKKAKCLLSKWKA are within error of each other in abundance fitness: -0.852 ± 0.24 for the first, -0.526 ± 0.098 for the second.

First: LTELETIYVTKEHLQEMDVVRAVYRVLKNCPSVALKKKAKCLLSKWKA
Second: LTELETIYVTKEHLQETDVVRAVYRVLKNCPSVALKKKAKCLLSKWRA
The abundance fitness of the first is higher: 0.192 ± 0.15 for the first, -0.431 ± 0.11 for the second.

First: LTELETIYVTKEHLQETDVVRAVYRVLKNCPCVALKKKAKCLLSKWKA
Second: LTELETIYVTKEHLQETDVVRAVYRVLKNCPRVALKKKAKCLLSKWKA
The abundance fitness of the first is higher: 0.367 ± 0.12 for the first, 0.022 ± 0.072 for the second.

LTELETIYVTKEHLQETDVVRAVYRVLKNCPQVALKKKAKCLLSKWKA and LTELETIYVTKEHLQETDVVRAMYRVLKNCPSVALKKKAKCLLSKWKA are within error of each other in abundance fitness: -0.439 ± 0.32 for the first, -0.087 ± 0.12 for the second.

Going from LTELETIYVTAEHLQETDVVRAVYRVLKNCPSVALKKKAKCLLSKWKA to LTELETIYVTCEHLQETDVVRAVYRVLKNCPSVALKKKAKCLLSKWKA, the abundance fitness falls from 0.095 ± 0.1 to -0.337 ± 0.11.

Compared with LTELETIYMTKEHLQETDVVRAVYRVLKNCPSVALKKKAKCLLSKWKA, LTELEIIYVTKEHLQETDVVRAVYRVLKNCPSVALKKKAKCLLSKWKA is lower in abundance fitness: -0.098 ± 0.12 for the first, -0.891 ± 0.27 for the second.

Compared with LTELEFIYVTKEHLQETDVVRAVYRVLKNCPSVALKKKAKCLLSKWKA, LTELETIYVTKEHLQETDVVRAVYRVLKNCPSVALKKKAKCLLSKPKA is lower in abundance fitness: -0.23 ± 0.12 for the first, -0.765 ± 0.23 for the second.

LTELETIYVTKEHLQETDVVRAVYRVLKNCPSVALKKKAKCLLSKNKA and LTELETIYVTKEHLQETDVVRAVYRVLKNCPSVALKKKAKCLLSKEKA are within error of each other in abundance fitness: -0.823 ± 0.34 for the first, -1.03 ± 0.22 for the second.

Going from LTELETIYVTKEHLQETDVVRAVYRVLRNCPSVALKKKAKCLLSKWKA to LTELETIYVTKEHLQETDVVRAVYRVLENCPSVALKKKAKCLLSKWKA, the abundance fitness falls from -0.033 ± 0.074 to -0.679 ± 0.13.

Compared with LTELETIYVTKEHLQETDVVAAVYRVLKNCPSVALKKKAKCLLSKWKA, LTELETIYVTKEHDQETDVVRAVYRVLKNCPSVALKKKAKCLLSKWKA is higher in abundance fitness: -0.457 ± 0.13 for the first, 0.184 ± 0.083 for the second.

First: LTELETIYVTKEHEQETDVVRAVYRVLKNCPSVALKKKAKCLLSKWKA
Second: LTELETIYVTKEHLQETDVVRAVYRVLKNCPSVALFKKAKCLLSKWKA
The abundance fitness of the first is higher: 0.336 ± 0.065 for the first, -0.007 ± 0.13 for the second.

First: LTELETIYVTKEHLQETDVVRAVYRVLKNCPSVALKKKAKCQLSKWKA
Second: LTELETIYVTKEHLQETDVVRAVYRVLKNCPSVALKKKAKCFLSKWKA
The abundance fitness of the first is lower: -0.791 ± 0.25 for the first, -0.174 ± 0.14 for the second.

Going from LTELETIYVTKEHLQETDVVRAVYKVLKNCPSVALKKKAKCLLSKWKA to LTELETIYVTKEHLQETDVVRAVYRVLKNCYSVALKKKAKCLLSKWKA, the abundance fitness rises from -0.364 ± 0.11 to -0.021 ± 0.092.

Going from LTELETIYVTKEHLVETDVVRAVYRVLKNCPSVALKKKAKCLLSKWKA to LTELETIYVTKEHLAETDVVRAVYRVLKNCPSVALKKKAKCLLSKWKA, the abundance fitness rises from -0.527 ± 0.095 to -0.088 ± 0.081.

Going from LTELETIYVTKEHLMETDVVRAVYRVLKNCPSVALKKKAKCLLSKWKA to LTELETIYVTKEHLRETDVVRAVYRVLKNCPSVALKKKAKCLLSKWKA, the abundance fitness rises from -0.452 ± 0.13 to 0.093 ± 0.071.

Going from LTELETIYVTKEHLQETDVVRAVYRVLKNCPSVALKKPAKCLLSKWKA to LTELETIYVTKEHLQETDVVRAVYRVLKNCPSVALKKIAKCLLSKWKA, the abundance fitness rises from -0.679 ± 0.23 to -0.266 ± 0.16.
